T1: triply phosphorylated analog (S19D/S45D/S59D) of αB-crystallin (UniProt P02511 1-175, S19D | S45D | S59D)
T1 sequence (looked up): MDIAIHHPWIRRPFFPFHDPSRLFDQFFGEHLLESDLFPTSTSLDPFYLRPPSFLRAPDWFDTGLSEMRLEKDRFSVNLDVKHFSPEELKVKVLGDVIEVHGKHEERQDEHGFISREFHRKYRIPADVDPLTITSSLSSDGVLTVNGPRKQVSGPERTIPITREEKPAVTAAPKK


Columns and labels:
[1] = biological target: Human γD-crystallin I4F/V76D, bimane-labeled at cysteine 111 (human) (UniProt P07320); assay: fluorescence polarisation
[2] = biological target: T1, triply phosphorylated analog …; assay: fluorescence polarisation

Kd [1] [µM]	Kd [2] [µM]	Molecule
> 300		αB-crystallin (from UniProt P02511 1-175) (natural protein)
	27 ± 6	Human γD-crystallin I4F/V76D, bimane-labeled at cysteine 111 (natural protein, bimane label at cysteine C111) GKFTLYEDRGFQGRHYECSSDHPNLQPYLSRCNSARVDSGCWMLYEQPNYSGLQYFLRRGDYADHQQWMGLSDSDRSCRLIPHSGSHRIRLYEREDYRGQMIEFTEDCSCLQDRFRFNEIHSLNVLEGSWVLYELSNYRGRQYLLMPGDYRRYQDWGATNARVGSLRRVIDFS

— publication PMC3282170 (Febs Letters, 2012)
